Test results taken from patent publication US20110207628A1.

Tests used:
[1] = target: FLAG-tubby-F (full-length mouse tubby with N-terminal FLAG tag) (mouse) (UniProt P50586); experiment: clonal phage on immobilized FLAG-tubby-F, plaque assay
[2] = target: Axl-Fc (Axl extracellular domain fused to human IgG1 Fc fragment) (human); experiment: clonal phage on immobilized Axl-Fc, plaque assay
[3] = target: tubby-N (N-terminus of mouse tubby, 1M-242P), GST-free (mouse) (UniProt P50586); experiment: clonal phage on immobilized tubby-N, plaque assay
Sequence of tubby-N (N-terminus of mouse tubby, 1M-242P), GST-free (mouse) (P50586 1-242): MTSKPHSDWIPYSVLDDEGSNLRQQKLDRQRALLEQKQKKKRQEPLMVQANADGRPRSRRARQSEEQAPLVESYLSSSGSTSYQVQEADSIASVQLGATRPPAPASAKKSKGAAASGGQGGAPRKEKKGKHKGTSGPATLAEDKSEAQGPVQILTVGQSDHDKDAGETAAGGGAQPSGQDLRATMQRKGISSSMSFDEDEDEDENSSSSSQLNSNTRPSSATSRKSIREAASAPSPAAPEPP

Sequence of FLAG-tubby-F (full-length mouse tubby with N-terminal FLAG tag) (mouse) (P50586 other isoform, or with tags, fused parts or gaps): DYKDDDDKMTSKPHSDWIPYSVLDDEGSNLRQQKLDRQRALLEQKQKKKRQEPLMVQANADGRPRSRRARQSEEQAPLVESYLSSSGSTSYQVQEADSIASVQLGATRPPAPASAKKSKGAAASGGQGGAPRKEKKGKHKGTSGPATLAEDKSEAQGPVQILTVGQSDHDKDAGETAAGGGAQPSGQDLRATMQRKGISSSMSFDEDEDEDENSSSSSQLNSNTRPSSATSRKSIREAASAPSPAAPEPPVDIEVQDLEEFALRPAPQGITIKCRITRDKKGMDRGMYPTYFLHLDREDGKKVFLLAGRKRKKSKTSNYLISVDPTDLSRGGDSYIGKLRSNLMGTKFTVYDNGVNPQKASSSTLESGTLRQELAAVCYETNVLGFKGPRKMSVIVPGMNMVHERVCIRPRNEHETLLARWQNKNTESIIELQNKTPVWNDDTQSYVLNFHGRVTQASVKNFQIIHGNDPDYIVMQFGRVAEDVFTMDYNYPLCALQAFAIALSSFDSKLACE

Substance	Binding to tubby-F (binding specificity to FLAG-tubby-F vs. to GFP-FLAG) [1]	Binding activity (pfu ratio of clonal phage binding to immobilized Axl-Fc versus blank) [2]	Binding to tubby-N (binding specificity of clonal phage vs. control phage) [3]
Paf1/RNA polymerase II complex component (Rtf1) 69N-186K, phage clone (from UniProt A2AQ19 69-186)	6.2 X (fold)		
PH180: Lectin, galactose binding, soluble 3 (Lgals3) 131Y-264I, phage clone (from UniProt P16110 131-264)		1380 X (fold)	
High mobility group box 2-like 1 (Hmgb211) 170K-305G, phage clone	5 X (fold)		29.8 X (fold)
Unknown protein encoded by Chromosome X Genomic contig, alternate assembly (NW_001035178, 7824017-7824523 bp), phage clone	3.1 X (fold)		40.1 X (fold)
